From the Human Domainome abundance scans (Beltran et al. 2025)
± gives the uncertainty stated by the source.

B1: Endonuclease CUE2, residues 9 to 47; numbered along this chain, P36075 (parent)
chain: HESKLSILMDMFPAISKSKLQVHLLENNNDLDLTIGLLL
B2: Membrane-associated guanylate kinase, WW and PDZ domain-containing protein 2, residues 601 to 682; numbered along this chain, Q86UL8 (parent)
chain: AELMTLTIVKGAQGFGFTIADSPTGQRVKQILDIQGCPGLCEGDLIVEINQQNVQNLSHTEVVDILKDCPIGSETSLIIHRG

Variants of: B1
Experiment: abundance fitness (aPCA) (normalised: wild type 0, dead -1); higher = more abundant; growth selection in yeast, the domain comes from the species named
Conditions: Saccharomyces cerevisiae (strain ATCC 204508 / S288c)

Variant	abundance fitness
L37K	0.045 ± 0.083
L37M	-0.042 ± 0.042
L37N	-0.003 ± 0.075
L37P	-0.099 ± 0.046
L37Q	-0.016 ± 0.055
L37R	0.081 ± 0.041
L37S	0.026 ± 0.04
L37T	0.098 ± 0.048
L37V	-0.054 ± 0.038
L37W	-0.128 ± 0.047
L37Y	0.007 ± 0.054
L38A	-0.375 ± 0.054
L38C	-0.116 ± 0.064
L38D	-0.1 ± 0.25
L38E	-0.568 ± 0.058
L38G	-0.557 ± 0.049
L38K	-0.983 ± 0.11
L38M	-0.054 ± 0.074
L38N	-0.471 ± 0.25
L38P	-0.497 ± 0.085
L38Q	-0.664 ± 0.12

Variant	abundance fitness
L38R	-0.792 ± 0.06
L38S	-0.768 ± 0.078
L38T	-0.628 ± 0.12
L38V	-0.27 ± 0.053
L38W	-1.02 ± 0.13
L39E	0.154 ± 0.05
L39F	-0.084 ± 0.11
L39G	0.122 ± 0.042
L39H	-0.062 ± 0.2
L39I	-0.182 ± 0.13
L39K	0.33 ± 0.094
L39M	0.167 ± 0.057
L39N	0.081 ± 0.078
L39P	-0.199 ± 0.048
L39Q	0.132 ± 0.05
L39R	0.276 ± 0.035
L39S	0.1 ± 0.037
L39T	0.122 ± 0.044
L39V	-0.046 ± 0.047
L39W	-0.066 ± 0.047

Variants of: B2
Experiment: as above
Conditions: Homo sapiens

Variant	abundance fitness
D68L	-0.138 ± 0.086
F15K	-0.322 ± 0.044
L32M	0.035 ± 0.24
Q30R	-0.111 ± 0.094
H59A	-0.088 ± 0.077
M4H	-0.026 ± 0.065
F15G	-0.221 ± 0.036
P23H	-0.303 ± 0.16
E2L	-0.131 ± 0.035
L32I	-0.057 ± 0.13
G82K	-0.16 ± 0.15
L3T	0.015 ± 0.035
I31A	-0.101 ± 0.31
V63K	-0.095 ± 0.21
D33M	-0.124 ± 0.06
E61R	0.002 ± 0.1
G16N	0.018 ± 0.051
L57D	-0.109 ± 0.19
I8E	-0.52 ± 0.058
F17D	-1.18 ± 0.28
I31N	-0.219 ± 0.21
D64I	-0.183 ± 0.18
N56K	-0.046 ± 0.095
A1V	0.093 ± 0.063
P23N	-0.045 ± 0.11
E2P	-0.205 ± 0.043

Variant	abundance fitness
T5C	-0.142 ± 0.058
G36E	0.037 ± 0.17
H59R	-0.009 ± 0.057
C37V	-0.119 ± 0.099
L6C	0.038 ± 0.053
C37A	-0.195 ± 0.11
C69S	0.177 ± 0.18
I65K	-0.069 ± 0.057
M4L	-0.078 ± 0.031
P23F	-0.106 ± 0.091
P23E	-0.022 ± 0.043
V9E	-0.088 ± 0.035
G39V	-0.392 ± 0.11
D33I	-0.243 ± 0.11
S58Q	-0.057 ± 0.092
I49V	0.072 ± 0.082
E61A	-0.151 ± 0.094
V9G	-0.077 ± 0.027
L3W	-0.162 ± 0.035
T75I	-0.101 ± 0.4
G11Q	-0.119 ± 0.059
I71T	-0.038 ± 0.15
E2M	-0.001 ± 0.044
K10M	-0.102 ± 0.047
E2I	-0.139 ± 0.065
S58K	-0.236 ± 0.17

Variant	abundance fitness
T60V	0.004 ± 0.086
C41M	-0.04 ± 0.05
L77T	-0.132 ± 0.12
S58D	-0.183 ± 0.17
C41S	0.027 ± 0.038
I8W	-0.063 ± 0.038
F17E	-0.75 ± 0.072
G36M	0.04 ± 0.13
Q51L	-0.064 ± 0.029
V28S	-0.849 ± 0.2
I46V	-0.079 ± 0.18
D64G	-0.059 ± 0.071
C69G	-0.059 ± 0.061
P70M	-0.098 ± 0.12
G82C	-0.117 ± 0.16
T18C	-0.044 ± 0.049
H59S	-0.038 ± 0.083
N53K	-0.021 ± 0.042
T7G	-0.168 ± 0.03
G72L	-0.003 ± 0.079
E61T	-0.289 ± 0.14
P70N	-0.089 ± 0.23
C37P	-0.384 ± 0.18
R27E	-0.173 ± 0.1
D21P	-0.048 ± 0.14
G82L	-0.148 ± 0.17

Variant	abundance fitness
V63F	-0.432 ± 0.38
G36F	-0.245 ± 0.22
V63H	-0.493 ± 0.21
S73Y	-0.178 ± 0.19
T7K	0.002 ± 0.05
E2G	-0.049 ± 0.034
K10T	-0.182 ± 0.042
G72D	0.073 ± 0.089
Q51F	-0.063 ± 0.041
E2H	-0.113 ± 0.053
T24Q	-0.035 ± 0.044
A12P	-0.043 ± 0.064
P38G	-0.067 ± 0.077
C69M	-0.102 ± 0.12
Q52T	-0.018 ± 0.038
P23R	-0.03 ± 0.038
Q52S	-0.037 ± 0.037
A1D	-0.198 ± 0.13
A1W	-0.397 ± 0.35
E42D	-0.152 ± 0.076
I8N	-0.282 ± 0.077
E48V	-0.086 ± 0.087
E74R	0.013 ± 0.069
D33Y	0.049 ± 0.1
G14F	-0.21 ± 0.042
V9N	-0.207 ± 0.11

Variant	abundance fitness
G39K	-0.192 ± 0.2
I71A	-0.165 ± 0.1
I34Q	-0.031 ± 0.081
D44M	-0.572 ± 0.24
N53F	-0.095 ± 0.038
T24A	-0.013 ± 0.037
T60E	-0.051 ± 0.11
I65N	-0.256 ± 0.087
V63L	-0.278 ± 0.2
D33V	-0.152 ± 0.052
T24F	-0.053 ± 0.087
D44G	-0.859 ± 0.11
R27A	-0.042 ± 0.17
G36T	0.064 ± 0.21
V9P	-0.135 ± 0.06
A12I	-0.137 ± 0.065
Q55V	-0.027 ± 0.09
G72S	0.004 ± 0.083
I31Q	-0.091 ± 0.22
R81H	0.048 ± 0.23
G16R	-0.051 ± 0.028
D33N	-0.043 ± 0.082
